# Results from the supplement of paper PMC7877785.
# ± gives the uncertainty stated by the source.
# Experiment: self-splicing fitness, log relative to wild type (ln ratio); higher = more splicing; Tetrahymena group I intron in knt gene, E. coli kanamycin selection, DiMSum; sequences stand for … in CUCUCU…GGAGGGAAAAGUUAUCAGGCAUGCACCUGGUAGCUAGUCUUUAAACCAAUAGAUUGCAUCGGUUUAAAAGGCAAGACCGUCAAAUUGCGGGAAAGGGGUCAACAGCCGUUCAGUACCAAGUCUCAGGGGAAACUUUGAGAUGGCCUUGCAAAGGGUAUGGUAAUAAGCUGACGGACAUGGUCCUAACCACGCAGCCAAGUCCUAAGUCAACAGAUCUUCUGUUGAUAUGGAUGCAGUUCACAGACUAAAUGUCGGUCGGGGAAGAUGUAUUCUUCUCAUAAGAUAUAGUCGGACCUCUCCUUAAUGGGAGCUAGCGGAUGAAGUGAUGCAACACUGGAGCCGCUGGGAACUAAUUUGUAUGCGAAAGUAUAUUGAUUAGUUUUGGAGUACUCGUGGUCG
# In short: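 The eight P1ex-region nucleotides of an intron in the knt kanamycin-resistance gene on pET-22b(+) were all randomised and the library put into E. coli BL21(DE3). Six replicate transformations were grown overnight at 37°C or 30°C on LB agar with or without 25 μg/mL kanamycin, together with 100 μg/mL carbenicillin, 50 μM IPTG and 0.2% rhamnose. Colonies were pooled and amplicon-sequenced on an Illumina HiSeq 2500. Fitness from DiMSum is the error-weighted combination of wild-type-normalised replicate fold changes, kanamycin over none.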
Sequence,self-splicing fitness (ln) (30 °C),self-splicing fitness (ln) (37 °C)
GGCAAGCAAUAUUACGUAUC,-0.35 ± 0.063,0.0433 ± 0.083
GGCAAGCAAUAUUACGUGGU,-2.43 ± 0.085,-1.57 ± 0.075
GGCAAGCAAUAUUACGUUGG,-2.5 ± 0.075,-2.93 ± 0.12
GGCCAGCAAUAUUACGAACG,-2.65 ± 0.41,-0.764 ± 0.3
GGCCAGCAAUAUUACGACAA,-2.78 ± 0.24,-1.71 ± 0.19
GGCCAGCAAUAUUACGACUC,-1.21 ± 0.11,0.0572 ± 0.13
GGCCAGCAAUAUUACGACUU,-0.142 ± 0.084,0.435 ± 0.11
GGCCAGCAAUAUUACGAGGC,-2.66 ± 0.23,-2.94 ± 0.4
GGCCAGCAAUAUUACGAUUA,-3.4 ± 0.21,-2.05 ± 0.15
GGCCAGCAAUAUUACGAUUU,-1.9 ± 0.12,-0.659 ± 0.13
GGCCAGCAAUAUUACGCCUA,-1.05 ± 0.15,-1.05 ± 0.15
GGCCAGCAAUAUUACGCUGC,,-1.67 ± 0.22
GGCCAGCAAUAUUACGCUGG,-3.98 ± 0.27,-2.27 ± 0.24
GGCCAGCAAUAUUACGGAAA,-1.27 ± 0.11,-0.606 ± 0.13
GGCCAGCAAUAUUACGGCCG,-3.47 ± 0.22,-3 ± 0.23
GGCCAGCAAUAUUACGGCUA,-0.439 ± 0.097,-0.0906 ± 0.1
GGCCAGCAAUAUUACGGCUU,-3.45 ± 0.21,-2.68 ± 0.22
GGCCAGCAAUAUUACGGGGC,-5.35 ± 0.32,-4.33 ± 0.23
GGCCAGCAAUAUUACGGGGU,-3.68 ± 0.24,-3.21 ± 0.26
GGCCAGCAAUAUUACGGGUC,-3.65 ± 0.26,-2.41 ± 0.23
GGCCAGCAAUAUUACGGUAC,-3.7 ± 0.19,-2.3 ± 0.15

Sequence,self-splicing fitness (ln) (30 °C),self-splicing fitness (ln) (37 °C)
GGCCAGCAAUAUUACGGUGG,-2.52 ± 0.14,-1.85 ± 0.14
GGCCAGCAAUAUUACGUCAA,-1.34 ± 0.31,-2.61 ± 0.35
GGCCAGCAAUAUUACGUCUC,-1.1 ± 0.089,-0.447 ± 0.12
GGCCAGCAAUAUUACGUCUG,-3.07 ± 0.24,-2.93 ± 0.32
GGCCAGCAAUAUUACGUUGU,-0.721 ± 0.072,-0.537 ± 0.1
GGCGAGCAAUAUUACGACGU,-1.36 ± 0.16,-0.783 ± 0.21
GGCGAGCAAUAUUACGAGAG,-3.79 ± 0.39,-2.54 ± 0.33
GGCGAGCAAUAUUACGAGAU,-3.61 ± 0.32,-2.37 ± 0.49
GGCGAGCAAUAUUACGAGGA,-3.43 ± 0.43,-2.43 ± 0.25
GGCGAGCAAUAUUACGAUAA,-1.64 ± 0.13,-0.294 ± 0.15
GGCGAGCAAUAUUACGAUAU,-2.12 ± 0.12,-0.859 ± 0.12
GGCGAGCAAUAUUACGAUGU,-3.69 ± 0.32,-1.53 ± 0.2
GGCGAGCAAUAUUACGAUUU,-1.09 ± 0.092,-0.569 ± 0.12
GGCGAGCAAUAUUACGCAAC,-0.841 ± 0.36,-0.673 ± 0.27
GGCGAGCAAUAUUACGCAUA,-1.15 ± 0.17,-0.988 ± 0.16
GGCGAGCAAUAUUACGCCAG,-1 ± 0.18,-2.71 ± 0.44
GGCGAGCAAUAUUACGCCGA,-2.65 ± 0.18,-1.45 ± 0.091
GGCGAGCAAUAUUACGCGAC,-2.61 ± 0.42,
GGCGAGCAAUAUUACGCGAU,-3.7 ± 0.26,-1.62 ± 0.19
GGCGAGCAAUAUUACGCGUU,-2.26 ± 0.24,-1.94 ± 0.3
GGCGAGCAAUAUUACGCUCU,-2.72 ± 0.23,-2.06 ± 0.2
